Test results: patent US20180057604A1 (Genentech, published 2018)
Numbering of substitutions follows the chain as printed.

B1: hu7A4.v6 (antibody, V domains shown)
VH: EVQLVQSGAEVKKPGASVKVSCKGSGYTFTDYAMHWVRQAPGQGLEWMGGISTYFGRTNYNQKFKGRVTMTRDTSISTAYMELSRLRSDDTAVYYCARGLSGNYVMDYWGQGTTVTVSS
VL: DIVMTQSPDSLAVSLGERATINCRASESVDSYGNSFMHWYQQKPGQPPKLLIYRASNLESGIPDRFSGSGSGTDFTLTISSLQAEDVAVYYCQQSNEGPPTFGQGTKLEIK
notes: IgG
B2: hu7A4.v13 (antibody, V domains shown)
VH: B1 VH with R72V
VL: B1 VL with I62V, G98A
notes: IgG
B3: hu7A4.v7 (antibody, V domains shown)
VH: B1 VH with G24A, R72V
VL: B1 VL
notes: IgG
B4: hu7A4.v8 (antibody, V domains shown)
VH: B1 VH with R72V
VL: B1 VL
notes: IgG
B5: hu7A4.v9 (antibody, V domains shown)
VH: B1 VH with G24A
VL: B1 VL with I62V, G72R
notes: IgG
B6: hu7A4.v10 (antibody, V domains shown)
VH: B1 VH
VL: B1 VL with I62V, G72R
notes: IgG
B7: hu7A4.v14 (antibody, V domains shown)
VH: B1 VH with R72V
VL: B1 VL with G98A
notes: IgG
B8: hu7A4.v12 (antibody, V domains shown)
VH: B1 VH with R72V
VL: B1 VL with I62V, G72R
notes: IgG
B9: hu7A4.v11 (antibody, V domains shown)
VH: B1 VH with G24A, R72V
VL: B1 VL with I62V, G72R
notes: IgG
B10: hu16F6.v1 (antibody, V domains shown)
VH: EVQLVESGPGLVKPSETLSLTCTVSGNSITSEYAWNWIRQPPGKGLEWIGYISYSGTTSYNPSLKSRVTISVDTSKNQFSLKLSSVTAADTAVYYCARYGYGNPATRYFDVWGQGTLVTVSS
VL: DIQMTQSPSSLSASVGDRVTITCRASKSISKYLAWYQQKPGKAPKLLLYSGSTLQSGVPSRFSGSGSGTDYTLTISSLQPEDFATYYCQQHNEYPWTFGQGTKVEIK
notes: IgG; HC 71 V, 78 F
B11: hu16F6.v4 (antibody, V domains shown)
VH: B10 VH with V72R, F79L
VL: B10 VL with A43T, P44N
notes: IgG; HC 71 R, 78 L; also called 16F6.v4 IgG
B12: hu16F6.v3 (antibody, V domains shown)
VH: B10 VH
VL: B10 VL with A43T, P44N
notes: IgG; HC 71 V, 78 F
B13: 6270 (antibody, V domains shown)
VH: QVQLVQSGAEVKKPGSSVKVSCKASGGTFSGYGISWVRQAPGQGLEWMGNIIPGFGTANYAQKFQGRVTITADESTSTAYMELSSLRSEDTAVYYCARSGGTKYGMLDVWGQGTMVTVSS
VL: EIVMTQSPATLSVSPGERATLSCRASQSVSSNLAWYQQKPGQAPRLLIYGASTRATGIPARFSGSGSGTEFTLTISSLQSEDFAVYYCQQLLLWPPRTFGGGTKVEIK
notes: anti-BACE1 IgG
B14: 6297 (antibody, V domains shown)
VH: QLQLQESGPGLVKPSETLSLTCTVSGGPISSSSYYWGWIRQPPGKGLEWIGNIYYSGSTYYNPSLRGRVTISVDTSKNQFSLKLSSVTAADTAVYYCARLGHGYNYFDLWGRGTLVTVSS
VL: EIVLTQSPATLSLSPGERATLSCRASQSVSSYLAWFQQKPGQAPRLLIYDASNRATGIPARFSGSGSGTDFTLTISSLEPEDFAVYYCQQVYVWPPRTFGGGTKVEIK
notes: anti-BACE1 IgG
B15: 6293 (antibody, V domains shown)
VH: B14 VH with P28S, N52M, Y60W, G67S, L100V, Y104V, N105S
VL: B14 VL with F36Y, N53K, V93T
notes: anti-BACE1 IgG
B16: 6288 (antibody, V domains shown)
VH: B14 VH with P28S, I29T, N52S, Y55R, G67S, L100V, Y104I, N105S
VL: B14 VL with F36Y, V91S, Y92L, V93T
notes: anti-BACE1 IgG
B17: 6296 (antibody, V domains shown)
VH: B14 VH with P28S
VL: B14 VL
notes: anti-BACE1 IgG
B18: 6290 (antibody, V domains shown)
VH: B14 VH with P28S, N52M, Y60W, R66K, G67S, L100V, H102L, Y104V, N105S
VL: B14 VL with F36Y, N53K, V93T
notes: anti-BACE1 IgG
B19: 6275 (antibody, V domains shown)
VH: B13 VH with S30R, G33A
VL: B13 VL with L92F
notes: anti-BACE1 IgG
B20: 6279 (antibody, V domains shown)
VH: B13 VH with S30R, G33A
VL: B13 VL
notes: anti-BACE1 IgG
B21: 6289 (antibody, V domains shown)
VH: B14 VH with P28S, N52S, Y55R, G67S, A98V, L100V, Y104I, N105S
VL: B14 VL with F36Y, V91S, Y92L, V93T
notes: anti-BACE1 IgG
B22: 6274 (antibody, V domains shown)
VH: B13 VH
VL: B13 VL with N32H, L92I
notes: anti-BACE1 IgG

Each binder was assayed against T1, human TfR extracellular domain with N-terminal His tag (human, UniProt P02786 89-760) (assay: SPR, IgG;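 further: His-tagged TfR captured via immobilized anti-His antibody on a CM5 chip, antibody injected in 3-fold dilution series by single cycle kinetics, 1:1 Langmuir or steady-state fit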).
T1 construct: Biotinylated in some assays; also called huTfR; HuTfR
T1 sequence (P02786 89-760 G142S): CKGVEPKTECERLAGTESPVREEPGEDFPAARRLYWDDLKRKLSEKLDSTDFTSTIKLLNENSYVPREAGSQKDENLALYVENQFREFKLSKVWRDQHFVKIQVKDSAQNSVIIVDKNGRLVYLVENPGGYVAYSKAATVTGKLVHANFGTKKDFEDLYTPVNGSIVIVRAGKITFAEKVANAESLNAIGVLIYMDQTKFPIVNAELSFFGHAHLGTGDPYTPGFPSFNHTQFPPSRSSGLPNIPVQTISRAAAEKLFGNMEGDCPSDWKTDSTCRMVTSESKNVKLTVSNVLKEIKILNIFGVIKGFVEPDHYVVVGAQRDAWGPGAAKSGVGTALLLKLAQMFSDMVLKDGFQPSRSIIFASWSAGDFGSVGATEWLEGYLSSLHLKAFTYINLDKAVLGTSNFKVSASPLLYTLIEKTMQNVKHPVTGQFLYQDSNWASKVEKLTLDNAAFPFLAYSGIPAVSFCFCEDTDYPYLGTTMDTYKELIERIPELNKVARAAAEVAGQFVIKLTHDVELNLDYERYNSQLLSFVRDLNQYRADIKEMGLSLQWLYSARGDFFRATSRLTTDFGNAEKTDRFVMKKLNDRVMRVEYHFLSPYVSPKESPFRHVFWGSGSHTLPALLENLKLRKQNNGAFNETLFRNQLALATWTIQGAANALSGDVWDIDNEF
Protocol: (§1) Antibody affinities were measured using surface plasmon resonance (“SPR”) (Biacore™, GE Healthcare). Anti-His antibody (Qiagen) was coupled onto four different flow cells of a BIACORE™ CM5 sensor chip (Biacore, Inc., Piscataway, N.J.) at between 6000 and 8000 RU. Immobilization was achieved by random coupling through amino groups using a protocol provided by the manufacturer. 10×HBS-P (Biacore, Inc., Piscataway, N.J.) was diluted in water and served as the dilution and running buffer. Purified human or cyno TfR was captured, followed by a 3-fold dilution series of IgG or Fab that was injected at a flow rate of 30 ml/min using the single cycle kinetics method. Affinity constants were determined using a simple 1:1 Langmuir binding model or using a steady state model when kₒₙ or koff was beyond the detection limit. The equilibrium dissociation constant (KD) was calculated as the ratio of association rate constant (kₒₙ) and dissociation rate constant (koff).
(§2) In both cases, the SPR experiments were performed as described above.

With B1 the Kd was 260 pM.

Target: T2, cyno TfR extracellular domain (analogous construct to human TfR ecd) (cynomolgus monkey, UniProt Q5RDH6 87-760 (Pongo abelii entry))
T2 construct: also called cynoTfR ecd
T2 chain: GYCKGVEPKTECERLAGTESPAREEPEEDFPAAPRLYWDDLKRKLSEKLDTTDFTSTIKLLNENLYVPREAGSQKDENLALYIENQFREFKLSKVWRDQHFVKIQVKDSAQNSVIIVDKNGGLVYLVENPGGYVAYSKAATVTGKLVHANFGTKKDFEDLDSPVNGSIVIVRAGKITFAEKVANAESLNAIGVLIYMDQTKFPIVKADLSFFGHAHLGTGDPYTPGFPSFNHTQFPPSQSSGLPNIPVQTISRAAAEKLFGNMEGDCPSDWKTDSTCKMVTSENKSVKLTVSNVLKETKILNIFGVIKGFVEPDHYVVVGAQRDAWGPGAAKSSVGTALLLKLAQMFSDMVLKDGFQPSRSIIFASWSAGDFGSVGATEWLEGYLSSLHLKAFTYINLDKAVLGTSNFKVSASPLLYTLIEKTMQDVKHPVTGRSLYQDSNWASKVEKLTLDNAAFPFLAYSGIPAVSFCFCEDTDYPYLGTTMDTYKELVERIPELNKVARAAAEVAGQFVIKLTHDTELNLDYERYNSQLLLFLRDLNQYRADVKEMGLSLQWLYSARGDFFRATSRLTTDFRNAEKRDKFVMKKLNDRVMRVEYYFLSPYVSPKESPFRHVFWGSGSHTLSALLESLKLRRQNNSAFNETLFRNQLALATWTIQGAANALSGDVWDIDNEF
Assay: SPR, IgG;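 further: His-tagged TfR captured via immobilized anti-His antibody on a CM5 chip, antibody injected in 3-fold dilution series by single cycle kinetics, 1:1 Langmuir or steady-state fit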
Protocol: as §1, §2

With B1 the Kd was 1060 pM.

Target: T1, human TfR extracellular domain with …
Assay: SPR, IgG;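 further: His-tagged TfR captured via immobilized anti-His antibody on a CM5 chip, antibody injected in 3-fold dilution series by single cycle kinetics, 1:1 Langmuir or steady-state fit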
Remark: another data set of the same source
Protocol: as §1, §2

Compared with B2, B3 is 2.6-fold lower in Kd: 1360 pM for the first, 515 pM for the second.

Going from B4 to B5, the Kd falls from 1290 pM to 119 pM (11-fold).

First: B6
Second: B7
The Kd of the first is 8.3-fold lower: 143 pM for the first, 1190 pM for the second.

B8 and B9 are within 1.5-fold of each other in Kd: 200 pM for the first, 156 pM for the second.

First: B10
Second: B11
The Kd of the first is 21-fold higher: 18700 pM for the first, 884 pM for the second. The second binds more tightly here.

B12 gave a Kd of 4110 pM.

Target: T2, cyno TfR extracellular domain …
Assay: SPR, IgG;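 further: His-tagged TfR captured via immobilized anti-His antibody on a CM5 chip, antibody injected in 3-fold dilution series by single cycle kinetics, 1:1 Langmuir or steady-state fit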
Remark: another data set of the same source
Protocol: as §1, §2

Compared with B2, B3 is 9.7-fold lower in Kd: 11400 pM for the first, 1180 pM for the second. The second binds more tightly here.

B5 and B6 are within 1.5-fold of each other in Kd: 428 pM for the first, 505 pM for the second.

Going from B7 to B8, the Kd falls from 15700 pM to 2090 pM (7.5-fold). The second binds more tightly here.

Compared with B9, B10 is 210-fold higher in Kd: 943 pM for the first, 199000 pM for the second. The first binds more tightly here.

Going from B11 to B12, the Kd rises from 11000 pM to 34500 pM (3.1-fold). The first binds more tightly here.

Each binder was assayed against T3, human BACE1 ECD (assay: Octet, pH 5.0;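 further: antibodies captured on anti-human capture sensor tips, dissociation monitored in PBS with BSA buffer, kinetics fitted with a one-to-one binding model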).
T3 construct: analyte of the Octet assay (200 nM) and enzyme of the first short substrate assay; also called human BACE1 extracellular domain
T3 sequence (single chain, as listed by the source limits assumed): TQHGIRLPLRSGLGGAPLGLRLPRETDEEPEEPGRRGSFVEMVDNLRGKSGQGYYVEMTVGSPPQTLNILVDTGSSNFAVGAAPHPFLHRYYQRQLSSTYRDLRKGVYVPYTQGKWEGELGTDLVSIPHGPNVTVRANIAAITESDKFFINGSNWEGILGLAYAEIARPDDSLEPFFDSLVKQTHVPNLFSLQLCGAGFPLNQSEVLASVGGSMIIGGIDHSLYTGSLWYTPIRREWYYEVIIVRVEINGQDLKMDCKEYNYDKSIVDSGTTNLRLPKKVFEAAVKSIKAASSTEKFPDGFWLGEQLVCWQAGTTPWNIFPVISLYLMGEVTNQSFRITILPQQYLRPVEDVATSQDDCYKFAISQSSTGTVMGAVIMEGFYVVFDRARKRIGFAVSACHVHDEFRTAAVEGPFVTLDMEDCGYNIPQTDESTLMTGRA
Protocol: (§3) Anti-BACE1 antibodies were loaded onto anti-human capture (AHC) sensors (tips) followed by 60 seconds baseline in assay buffer. […] Tips were transferred to assay buffer for 5 minutes, 30 minutes, or 120 minutes depending on the off-rate, for off-rate measurement. Assay buffer was either PBS+0.1% BSA, pH 7.5; or PBS+0.1% BSA, pH 5.0. Kinetics were analyzed using a 1:1 binding model.

B13 and B14 cannot be ordered by Kd: under 290 pM for the first, 280 pM for the second.

B15 and B16 cannot be ordered by Kd: under 280 pM for the first, under 210 pM for the second.

B17 and B18 cannot be ordered by Kd: 200 pM for the first, under 230 pM for the second.

B19 and B20 cannot be ordered by Kd: under 340 pM for the first, under 360 pM for the second.

B21 and B22 are within 1.5-fold of each other in Kd: 390 pM for the first, 530 pM for the second.

Each binder was assayed against T4, murine BACE1 ECD (assay: Octet, pH 5.0;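 further: antibodies captured on anti-human capture sensor tips, dissociation monitored in PBS with BSA buffer, kinetics fitted with a one-to-one binding model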).
T4 construct: analyte of the Octet assay (200 nM) and enzyme of the first short substrate assay
T4 sequence (single chain, as listed by the source limits assumed): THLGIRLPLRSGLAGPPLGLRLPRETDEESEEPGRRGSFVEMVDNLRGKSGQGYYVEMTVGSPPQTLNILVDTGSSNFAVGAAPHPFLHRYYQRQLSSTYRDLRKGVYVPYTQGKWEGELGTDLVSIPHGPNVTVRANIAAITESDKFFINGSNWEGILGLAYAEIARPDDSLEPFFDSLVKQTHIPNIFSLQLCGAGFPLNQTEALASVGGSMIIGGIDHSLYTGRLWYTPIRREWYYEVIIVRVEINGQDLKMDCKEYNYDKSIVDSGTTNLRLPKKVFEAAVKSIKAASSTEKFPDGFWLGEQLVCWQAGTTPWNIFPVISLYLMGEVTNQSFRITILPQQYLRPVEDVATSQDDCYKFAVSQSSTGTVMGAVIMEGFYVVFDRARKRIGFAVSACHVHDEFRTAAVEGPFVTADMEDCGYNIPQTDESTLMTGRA
Protocol: as §3

B13 and B14 cannot be ordered by Kd: under 410 pM for the first, 320 pM for the second.

Compared with B15, B16 is higher in Kd: under 280 pM for the first, 280 pM for the second. The first binds more tightly here.

B17 and B18 cannot be ordered by Kd: under 240 pM for the first, under 270 pM for the second.

B19 and B20 cannot be ordered by Kd: under 370 pM for the first, under 430 pM for the second.

Going from B21 to B22, the Kd rises from 380 pM to 760 pM (2-fold).

What follows are binders tested against T3, human BACE1 ECD (assay: Octet, pH 7.5;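 further: antibodies captured on anti-human capture sensor tips, dissociation monitored in PBS with BSA, Kd obtained from kinetic fit to a one-to-one binding model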).
Protocol: as §3

Going from B13 to B14, the Kd rises from under 290 pM to 400 pM.

B15 and B16 cannot be ordered by Kd: under 280 pM for the first, under 210 pM for the second.

Compared with B17, B18 is lower in Kd: 280 pM for the first, under 260 pM for the second.

B19 and B20 cannot be ordered by Kd: under 480 pM for the first, under 450 pM for the second.

Going from B21 to B22, the Kd falls from 370 pM to under 370 pM. The second binds more tightly here.

The binders below were run against T4, murine BACE1 ECD (assay: Octet, pH 7.5;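 further: antibodies captured on anti-human capture sensor tips, dissociation monitored in PBS with BSA, Kd obtained from kinetic fit to a one-to-one binding model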).
Protocol: as §3

B13 and B14 cannot be ordered by Kd: under 400 pM for the first, under 260 pM for the second.

B15 and B16 cannot be ordered by Kd: under 280 pM for the first, under 230 pM for the second.

B17 and B18 cannot be ordered by Kd: under 240 pM for the first, under 270 pM for the second.

B19 and B20 cannot be ordered by Kd: under 490 pM for the first, under 460 pM for the second.

B21 and B22 cannot be ordered by Kd: 280 pM for the first, under 370 pM for the second.

What follows are binders tested against T5, human BACE1 (R&D Systems) (human, UniProt P56817) (assay: SPR (Biacore)).
T5 construct: recombinant, commercial (R&D Systems)
T5 sequence (P56817 22-457 limits assumed): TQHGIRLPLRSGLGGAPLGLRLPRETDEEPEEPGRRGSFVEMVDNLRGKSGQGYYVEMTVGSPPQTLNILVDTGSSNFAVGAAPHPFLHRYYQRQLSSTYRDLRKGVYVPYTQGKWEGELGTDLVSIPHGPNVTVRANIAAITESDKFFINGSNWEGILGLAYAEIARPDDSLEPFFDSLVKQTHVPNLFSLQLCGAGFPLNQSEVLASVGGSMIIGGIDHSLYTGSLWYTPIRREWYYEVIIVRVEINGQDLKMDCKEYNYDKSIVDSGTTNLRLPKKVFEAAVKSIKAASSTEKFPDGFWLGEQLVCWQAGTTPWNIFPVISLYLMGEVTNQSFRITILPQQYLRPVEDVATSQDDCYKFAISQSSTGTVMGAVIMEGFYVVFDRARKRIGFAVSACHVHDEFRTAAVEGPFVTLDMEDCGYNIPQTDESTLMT
Protocol: Binding affinities of certain anti-BACE1 IgGs were measured by surface plasmon resonance (SRP) using a BIAcore™-T100 instrument. […] Association rates (kon) and dissociation rates (koff) were calculated using a simple one-to-one Langmuir binding model (BIAcore Evaluation Software version 3.2). The equilibrium dissociation constant (KD) was calculated as the ratio koff/kon.

B13 and B14 are within 1.5-fold of each other in Kd: 4640 pM for the first, 3870 pM for the second.

Compared with B15, B16 is 1.7-fold lower in Kd: 8260 pM for the first, 4790 pM for the second.

B17 and B18 are within 1.5-fold of each other in Kd: 3290 pM for the first, 3190 pM for the second.

B19 and B20 are within 1.5-fold of each other in Kd: 2680 pM for the first, 2110 pM for the second.

First: B21
Second: B22
The Kd of the first is 1.8-fold higher: 7370 pM for the first, 4180 pM for the second. The second binds more tightly here.

Each binder was assayed against BACE1 in primary mouse cortical neurons (mouse, UniProt P56818 46-501) (assay: cell-based or functional assay).
Chain of BACE1 in primary mouse cortical neurons (P56818 46-501): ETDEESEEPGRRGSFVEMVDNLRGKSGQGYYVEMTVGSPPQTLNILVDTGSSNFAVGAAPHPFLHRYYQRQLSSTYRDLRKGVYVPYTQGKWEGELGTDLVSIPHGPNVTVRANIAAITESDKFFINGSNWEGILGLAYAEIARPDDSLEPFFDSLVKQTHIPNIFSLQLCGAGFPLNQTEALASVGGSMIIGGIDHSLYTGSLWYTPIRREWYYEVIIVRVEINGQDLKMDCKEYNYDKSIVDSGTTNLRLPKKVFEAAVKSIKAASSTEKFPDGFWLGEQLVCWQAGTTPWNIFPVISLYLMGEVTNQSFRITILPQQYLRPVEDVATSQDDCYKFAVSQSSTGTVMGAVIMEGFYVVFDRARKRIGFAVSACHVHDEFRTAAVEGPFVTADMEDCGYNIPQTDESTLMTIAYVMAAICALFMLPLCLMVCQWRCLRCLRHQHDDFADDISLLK

B13 and B14 are within 1.5-fold of each other in “IC50, Abeta x-40 in mouse cortical neurons” value: 4480 pM for the first, 3890 pM for the second.

First: B15
Second: B16
The “IC50, Abeta x-40 in mouse cortical neurons” value of the first is 12-fold lower: 880 pM for the first, 11000 pM for the second.

Compared with B17, B18 is 2.5-fold lower in “IC50, Abeta x-40 in mouse cortical neurons” value: 7920 pM for the first, 3170 pM for the second.

First: B19
Second: B20
The “IC50, Abeta x-40 in mouse cortical neurons” value of the first is 4.9-fold lower: 1270 pM for the first, 6230 pM for the second.

B21 and B22 are within 1.5-fold of each other in “IC50, Abeta x-40 in mouse cortical neurons” value: 5210 pM for the first, 4820 pM for the second.

Compared with B13, B14 is lower in “maximal % inhibition of Abeta x-40” value: 85% for the first, 63% for the second.

Going from B15 to B16, the “maximal % inhibition of Abeta x-40” value falls from 75% to 67%.

First: B17
Second: B18
The “maximal % inhibition of Abeta x-40” value of the first is lower: 62% for the first, 63% for the second.

B19 and B20 are the same in “maximal % inhibition of Abeta x-40” value: 71% for the first, 71% for the second.

First: B21
Second: B22
The “maximal % inhibition of Abeta x-40” value of the first is lower: 74% for the first, 85% for the second.
